Data reported in publication PMC4009770, “A Comparison of Two Single-Stranded DNA Binding Models by Mutational Analysis of APOBEC3G”.

Columns and labels:
Assay in all cases: EMSA; EMSA: 10 mM Tris-HCl pH 7.5, 50 mM NaCl, 0.5% NP-40, 4% glycerol, 1 mM MgCl2, 0.5 mM EDTA, 1 mM DTT, 20 min room temperature, 4 pmol oligo in 20 uL, gel at 4 C; NMR: 50 mM sodium phosphate pH 7.4, 1 mM DTT, 50 uM ZnCl2, 300 uM protein
[1] = biological target: A3G R215E (human, UniProt Q9HC16 1-384, R215E); conditions: protein: recombinant; tags: C-terminal Strep; label: 5' Alexa488; single strand
[2] = biological target: A3G E259Q (human, UniProt Q9HC16 1-384, E259Q); conditions: protein: recombinant; tags: C-terminal Strep; label: 5' Alexa488; single strand
[3] = biological target: A3G E67Q (human, UniProt Q9HC16 1-384, E67Q); conditions: protein: recombinant; tags: C-terminal Strep; label: 5' Alexa488; single strand
[4] = biological target: A3G R313E/R320E (human, UniProt Q9HC16 1-384, R313E;R320E); conditions: protein: recombinant; tags: C-terminal Strep; label: 5' Alexa488; single strand
[5] = biological target: A3G R213E/R215E (human, UniProt Q9HC16 1-384, R213E;R215E); conditions: protein: recombinant; tags: C-terminal Strep; label: 5' Alexa488; single strand
[6] = biological target: A3G R374E/R376E (human, UniProt Q9HC16 1-384, R374E;R376E); conditions: protein: recombinant; tags: C-terminal Strep; label: 5' Alexa488; single strand
[7] = biological target: A3G-S wild type (human, UniProt Q9HC16 1-384); conditions: protein: recombinant; tags: C-terminal Strep (STP cleaved by TEV); label: 5' Alexa488; single strand
[8] = biological target: A3G R313E (human, UniProt Q9HC16 1-384, R313E); conditions: protein: recombinant; tags: C-terminal Strep; label: 5' Alexa488; single strand

Measured: binding result

A3G E67Q, sequence (Q9HC16 whole entry E67Q): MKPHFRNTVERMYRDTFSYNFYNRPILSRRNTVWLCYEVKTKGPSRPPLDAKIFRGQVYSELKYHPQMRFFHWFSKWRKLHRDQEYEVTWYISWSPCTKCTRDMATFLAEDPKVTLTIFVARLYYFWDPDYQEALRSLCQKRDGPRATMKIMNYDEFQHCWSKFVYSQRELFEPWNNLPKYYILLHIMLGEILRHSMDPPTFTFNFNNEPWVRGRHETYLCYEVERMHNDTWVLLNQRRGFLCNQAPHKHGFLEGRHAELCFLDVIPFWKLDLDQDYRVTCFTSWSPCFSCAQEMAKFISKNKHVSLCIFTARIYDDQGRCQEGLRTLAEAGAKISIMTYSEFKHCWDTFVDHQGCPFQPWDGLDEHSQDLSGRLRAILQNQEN
A3G R374E/R376E, sequence (Q9HC16 whole entry R374E/R376E): as the sequence (Q9HC16 whole entry E67Q) above, with Q67E, R374E, R376E counted along it
A3G R313E/R320E, sequence (Q9HC16 whole entry R313E/R320E): as the sequence (Q9HC16 whole entry E67Q) above, with Q67E, R313E, R320E counted along it
A3G E259Q, sequence (Q9HC16 whole entry E259Q): as the sequence (Q9HC16 whole entry E67Q) above, with Q67E, E259Q counted along it
A3G R313E, sequence (Q9HC16 whole entry R313E): as the sequence (Q9HC16 whole entry E67Q) above, with Q67E, R313E counted along it
A3G-S wild type, sequence (Q9HC16 whole entry): as the sequence (Q9HC16 whole entry E67Q) above, with Q67E counted along it
A3G R213E/R215E, sequence (Q9HC16 whole entry R213E/R215E): as the sequence (Q9HC16 whole entry E67Q) above, with Q67E, R213E, R215E counted along it
A3G R215E, sequence (Q9HC16 whole entry R215E): as the sequence (Q9HC16 whole entry E67Q) above, with Q67E, R215E counted along it

B1: Alexa488 69-mer (ssDNA)
DNA: GAAGAGGAAGGGAAGAAAGAGAAAGGGAGACCCAAAGAGGAAAGGTGAGGAGGTTAATTTGTGTAAATA
binds: [1] | [2] | [3] | [4] | [5] | [6] | [7] | [8]
